Results on five proteins are retold here after paper PMC7459334, “Akkermansia muciniphila uses human milk oligosaccharides to thrive in the early life conditions in vitro” (Scientific Reports, 2020).

What all share (experiment): purified protein
Substrate in data set [1]: O=[N+]([O-])c1ccc(O[C@@H]2O[C@H](CO)[C@H](O)[C@H](O)[C@H]2O)cc1
The note with it: McIlvaine buffer, pH 5.0, 37 °C.

Substrate in data set [2]: CC(=O)N[C@H]1[C@H](Oc2ccc([N+](=O)[O-])cc2)O[C@H](CO)[C@@H](O)[C@@H]1O
Type of data set: biochemical, Akkermansia muciniphila. To be noted: McIlvaine buffer.

Substrate in data set [3]: C[C@@H]1O[C@@H](Oc2ccc([N+](=O)[O-])cc2)[C@@H](O)[C@H](O)[C@@H]1O
The class given is biochemical, Akkermansia muciniphila. The note with it: McIlvaine buffer, pH 5.6, 37 °C, text b19 prints 839 ± 46.72.

The mark [4] stands for this setting: pH 5.6, 37 °C, text b19 prints 322.37 ± 43.64.

B1: Amuc_1686 (Akkermansia muciniphila ATCC BAA-835) (protein)
chain: AAPMPLPESNDGARHVFSTNQENFLMDGKPVKIISGEMHYPRVPRQHWKDRFQRIKAMGMNTVCTYLFWNVHEPEPGKWDFSGNLDFVEFIKEAQKAGLWVIVRPGPYVCAEWEFGGFPGWLLKDEDLKVRSQDPRFLEPAMAYLKKVCSMLEPLQITKGGPIIMAQVENEYGSYGSDKDYVKKHLDVIRKELPGVVPFTSDGPNDWMIKNGTLPGVVPAMNFGGGAKGAFANLEKHKGKTPRINGEFWVGWFDHWGKPKNGGSTEGFNRDLKWMLENNVSPNLFMAHGGTSFGFMNGANWEGAYTPDVTNYDYGAPISENGTLTDRYRTFRQTIQDYYGDTYKLPEPPAQPEMMELPPITFTETAGMFSRLPQPVIRKEPVHMEALGQSLGFILYRTKVNGPVKGELKMNNMQDRAIVYVDGKRQGAADRRYKQDSCDIVIPSGLHTVDIFVENMGRINFGGQIQGERKGIRGPITLDGKKLENFLIYNFPCKGVELIPFSGKKPAGDQPVFHRGYFNVSNPKDTYLDMRDGWKKGVVWVNGRNLGRFWFIGSQQALYCPGEYLKPGKNEIVVLDVDGGSGTVKGVKEAIYEVNRDPAMADVFRVGKPVAPAAGQLVHKGSFAKGADQQEIKFRAPVQARYIAIVSKNAHDNGPHAAIAELNFLDASGNLLPREQWSVVYADSHETTGEAAQAGLVMDNQPTTYWHTKWQGDNPRHPHMIVLDLGKVQKLSGFRYLPRQDRENGRIKDYEVYASPKPFKPAK
For B1, in the data set “purified protein [1]”, the Km was determined as 319.40 ± 259.30 µM, the Vmax turned out to be 29.3 µM/min, the kcat was 27.2 s⁻¹ and the catalytic efficiency (kcat/Km) was determined as 70200 M⁻¹ s⁻¹.

B2: Amuc_2136 (Akkermansia muciniphila ATCC BAA-835) (protein)
chain: QDAKQIADSLSIPPVKAGAKQLPMPSVSGAQIKLLGADYEQLVNSKGKIAPVISDTPVNVSFKVTKDGKEAVSKDYEIMLQAPQAAQGNPKPRIIPEILQWKGGQGEYKLGNTVTIACPDKELGKLFAADMEDVLGKKVKLVAPGAKADISLSLLKGGNLGREGYRLQIARDGVRLGAAAPTGLFWGTRTLLQMLRQTPGSVPCGTAVDFPRYQLRGFMLDVARTPYPLSYLKDVIRTMAWYKMNDLHLVINNNYIFHEHYVDNGHDPFKESYAAFRLESKMKGKDGTPLTARDLFYTKKEFADLVSYARKYGVNIVPEFDTPGHALSFTRLRPDLIYKGPMNHEKRRCEMLDAANPETIDLVSKVFDEYMLKDPKLGRPVFADCGVVHVGADEFYGDKEDYRHFANAVLTHALKRGYTPRIWGSLSAKPGKTPVVSKGVQMNLWSTGWMKAWEAVNQGYDVINTNDGALYIVPFAGYYRMDRNHKGLYNNWIPNRIGNETLPSGHPQLLGGTFAVWNDETDIMHTGYAPYDIWGIISGSMDVLSQKLWGTAKAPDTFEQHRELVSSIGNAPRTNPLHKWKDSQPLTVKPSSLPQKLDKPALGPNYRLTMELELTAAPEGKEQVLLAAPEGELLAVMKDGTVGFRRDDSLEFSFGAKLPVGKKVKVEIVGEPEKTSLLLDGEPAGTAVLKNFSDKSKDFSDKFKHRPKVHRSTFILPLKELGSSFQGKVFHMNVQPL
As for B2, in the data set “purified protein [2]” (pH 5.0, 37 °C), the Michaelis-Menten constant (Km) amounted to 714.55 ± 47.96 µM, the Vmax is 109 µM/min, the turnover number (kcat) came out at 1490 s⁻¹ and the kcat/Km was determined as 2.08e+06 M⁻¹ s⁻¹.

B3: Amuc_0010 (Akkermansia muciniphila ATCC BAA-835) (protein)
chain: QQSATKIITENGQPALALDEQFAARLRDGGMKQGSPATVPAEFSAAAPGLPLPADANHAAVRETAGERNRRMEWWRDAKFGMFIHYGLYSGLAGEWKGRPGGSEWIQKNVEVDTDTYAAEALPLFKPREGLTEEWAQLARDAGCQYVVLTSKHHEGFGLFDSALTDYDAKSAVNRDIIREYVDSCRKRGLKVGLYHSVIDWHHPSYDNTICPDLCYPAGQAAMLNRKNIPRDHAAYQKYLHAQVRELMTRYAPIDIMWWDYSQGAMEGAKGWKAPELMDMVRSINPGVIMNNRLYAYSGLNKNQAGTLDLRCGDYITPERFIPRRGYPGVDWESCMTVSDKWGYNRYDTNIKSPETIIEKLVECVTKGGNLLLNVNPMADGTIPEKVAATMRGVGRWLNINGEAVYGTRAFMQLDQPATINRQGDIFIFLIPPPDKEPAQPPSEGTMKELTAGAEHARMQPLDATGYENDGGTAVTLPAGYSKALLLGDNTALPVVNGTVLFKAHEHSKTPCSVIKLSK
Consider B3, for which, in the data set “purified protein [3]”, the Michaelis-Menten constant (Km) was found to be 841.23 ± 46.72 µM, the Vmax worked out at 19.8 µM/min, the kcat is 378 s⁻¹ and the catalytic efficiency (kcat/Km) came out at 451000 M⁻¹ s⁻¹.

B4: Amuc_0369 (Akkermansia muciniphila ATCC BAA-835) (protein)
chain: QEQIIPKPAEITLFTGSPARLTPDSLIITETQDKAFLDQAGQLQQMLSAGTGLPLPLKPAGQASKKAACIVIKKDPALAARGEEAYSIQSSPSGIILSAADARGIFYAGQSLVQMMPSVFHDRTGDKSAVRWNISETPFRITDYPRFSWRALMIDEARHFFGEKTIKQIIDQMALLKMNILHWHLTDDTGWRIEIKKYPRLTSIGSKRRESEIGTWNSGKSDGTPHEGFYTQEQIRDIVQYAARRNITIVPEIEMPGHASAAAVAYPFLSLKTPGEVPTTFIVNTAFDPTSEKTYAFLSDVLDEVTAIFPGRIIHIGGDEVRYDKQWKGVPEIEEFMKKNGMKSYADVQMHFTNRMSGIIAQKGRRMMGWNEIYGHDVNGDGGGKAGAKLDTNAVIQFWKGNTSLAKNAIRDGHDVINSLHTSTYLDYSYGSIPLQKAYGFEPVFPGLEKQYHSRVKGLGAQVWTEWISTPERLHYQAFPRACAFAEVGWTPAGKKDFPDFKKRLKAYSERMDLMGIKFARNVISQIDKSDFFNTPRIGTWTPATLTREEHSFDVTKLVKASGKHTVTLLYDKGAHAIEIESVALYENSREVSRDAHAGRSGAHKENIQYILNAPAPRQGATYTVKANFKGAGGRDSHGTVYFETP
With B4, in “purified protein [2]” (setting [4]), the Michaelis-Menten constant (Km) is 323.38 ± 43.64 µM, the Vmax came out at 55.6 µM/min, the kcat was 670 s⁻¹ and the kcat/Km was 2.07e+06 M⁻¹ s⁻¹.

B5: Amuc_0771 (Akkermansia muciniphila ATCC BAA-835) (protein)
chain: GPEAVQNVQKPALSGGPPVVFGFGGEGNQEFMLNGKPFQIRGAEMHPQRIPREYWRHRIRTAKAMGLNTIAFYVFWNDHEQPDGSFDFKTGNRDLEGFLKLCQEEGMWVLFRPGPYACGEWDLGGLPHYLLKDPKAKLRTTEDAKFMKAQTRYLEAVARVAEPFLAKNGGPILMTQLENEYGSYQRKDRKYMEWLKAFWSRKGFGPFYTSDGAGEHFLKGVVLPGVAVGLDPGLNDGHWAVANKCNPGVPVFSSETYPGWLRHWGEGNWAPTPGVVNHVRWFMDKGRSFSLFVFHGGTNFGFSAGANNGGPGKYQPDLTSYDYGSPVDEQGRMNEYYAQMREIILKKLPPEAAVPEPPADIPAMEIPEFTPAVHAGLWENLPKPFRSKFPQPPYFEQWNQNQGIAVYRTAVPSGPPETLEFTNVNDYAQVYLDGELVGTLDRRLGQKSVKLPERRKPGTLEVLVEAMGHINFHISMESDRKGIYGPVKLGTRELKNWTVRALPLKADSIVRAPKGKGPSQKREGAHFRAVVNIEEPQDTFLDMSRYVKGYVWVNGINVGRYWNVGPQLRLYVPAPFLKKGENVIDILDLHEKEPKPVRGMKERNKEPGKINTKNLDNQW
For B5, in “purified protein [1]”, the Michaelis constant (Km) is 2,599 ± 565.27 μM, the maximal velocity (Vmax) was 60.1 µM/min, the kcat came out at 13.8 s⁻¹ and the specificity constant (kcat/Km) is 5670 M⁻¹ s⁻¹.

Broadly, the Km is the substrate concentration at which the rate is half of its maximum. As a reminder, the Vmax is the rate approached at saturating substrate. Usually kcat stands for the number of substrate molecules converted per active site and unit of time at saturation. As a reminder, the kcat/Km is the second-order rate constant that governs catalysis at low substrate concentration.
